Measured values from patent US20170137467A1 (CHROMOTEK, published 2017).

B1: BC2 nanobody (VHH)
VHH: QVQLVESGGGLVQPGGSLTLSCTASGFTLDHYDIGWFRQAPGKEREGVSCINNSDDDTYYADSVKGRFTIFMDNAKDTVYLQMNSLKPEDTAIYYCAEARGCKRGRYEYDFWGQGTQVTVSS
notes: Alpaca VHH, 122 aa; also called BC2-Nb; BC2 nanotrap (BC2-Nb immobilized on agarose/Sepharose beads); not shown: C-terminal 6xHis-tag added by the pHEN6 vector
B2: BC2 nanobody (BC2-Nb) (VHH)
VHH: B1 VHH
notes: immobilised on agarose/sepharose beads in this assay; also called BC2 nanotrap (immobilised form); not shown: C-terminal 6xHis-tag added by pHEN6 vector

Assays:
[1] = molecular target: T1, BC2T W10K peptide (BC2TW10X library) (human); experiment: BC2TW10X library pulldown with immobilized Nb, LC-MS of the supernatant
T1 construct: also called W10 permutant K
T1 peptide: Ac-PDRKAAVSHKQQ-NH2
Description: (§1) To investigate the binding specificity of the BC2T and derived mutants peptide libraries for each amino acid position of the sequence […] (SEQ ID NO:4) were synthesized with acetyl and amide groups located at the N-termini or C-termini respectively (Intavis). […] Incubations were performed in 300 μl PBS/0.01% CHAPS for 1 h on a HulaMixer (Life Technologies). Subsequent to a centrifugation step 10 μl supernatant were analyzed in a LC-MS procedure. Peptides were separated using an UltiMate3000 RSLCnano System (Thermo Scientific), composed of a C18 PepMap100μ-Precolumn (300 μm×5 mm; particle size: 5 μm; pore size: 100 Å—Thermo Scientific) and a C18 analytical column (Acclaim Rapid Separation LC (RSLC) Column: 150 mm×5 mm; particle size: 2.2 μm; pore size: 100 Å—Thermo Scientific). A step gradient was applied starting at 8% and ending after 20 min at 30% eluent B (80% acetonitrile, 20% H₂O, 0.1% formic acid). Peptides were analyzed using a FULL-MS-strategy detected by a Q Exactive Plus mass spectrometer (Thermo Scientific). As maximal injection time 100 ms was chosen while setting the AGC target to 3E6. The resolution was set to 70.000. Half-maximal signal areas were referenced to control precipitation approaches using a GFP-specific nanobody immobilized on agarose beads. All experiments were done in triplicates.

[2] = molecular target: T2, BC2T W10I peptide (BC2TW10X library) (human); experiment: as above
T2 construct: Isobaric with the leucine peptide; also called W10 permutant I
T2 peptide: Ac-PDRKAAVSHIQQ-NH2
Description: as §1

[3] = molecular target: T3, BC2T W10D peptide (BC2TW10X library) (human); experiment: as above
T3 construct: also called W10 permutant D
T3 peptide: Ac-PDRKAAVSHDQQ-NH2
Description: as §1

[4] = molecular target: T4, BC2T W10Q peptide (BC2TW10X library) (human); experiment: as above
T4 construct: also called W10 permutant Q
T4 peptide: Ac-PDRKAAVSHQQQ-NH2
Description: as §1

EPDRKAAVSHWQQQS = molecular target: T5, EPDRKAAVSHWQQQS; experiment: peptide aa 15-29 on microspheres, biotinylated BC2-Nb, streptavidin-PE
T5 construct: unphosphorylated counterpart of 1.m32; also called β-catenin peptide aa 15-29 without phosphorylated Ser23; phos Ser23 -
T5 peptide: EPDRKAAVSHWQQQS
Description: (§2) As negative controls, microspheres comprising Ovalbumin and the Myc-peptide ([…]) covalently coupled to OVA-microspheres were used. […] Evaluation of the PE-signals were done in a Flexmap 3D (Luminex).

MEPDRKAAVSHWQQ = molecular target: T6, MEPDRKAAVSHWQQ; experiment: truncated peptides of β-catenin aa 14-27 on OVA-microspheres, biotinylated BC2-Nb, streptavidin-PE
T6 construct: full-length peptide of both truncation series; also called β-catenin aa 14-27
T6 peptide: MEPDRKAAVSHWQQ
Description: as §2

[5] = molecular target: T7, eGFP-PCNA with C-terminal BC2 tag (eGFP-PCNABC2T) (human, UniProt P12004 1-261); experiment: immunoprecipitation from HEK293T lysate, immunoblot with anti-PCNA
T7 construct: Expressed in HEK293T or HeLa cells; not shown: eGFP
T7 sequence (P12004 other isoform, or with tags, fused parts or gaps limits assumed): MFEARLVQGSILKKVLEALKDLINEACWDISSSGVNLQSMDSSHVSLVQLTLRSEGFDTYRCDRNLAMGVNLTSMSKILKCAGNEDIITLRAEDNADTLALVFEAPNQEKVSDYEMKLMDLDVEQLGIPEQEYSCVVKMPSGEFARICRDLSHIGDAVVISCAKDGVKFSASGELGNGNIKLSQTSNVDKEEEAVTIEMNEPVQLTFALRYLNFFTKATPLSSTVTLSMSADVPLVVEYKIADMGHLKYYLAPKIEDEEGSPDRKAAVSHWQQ
Description: (§3) HEK293T cells transiently expressing eGFP, eGFPBC2T or BC2TeGFP, eGFP-PCNA, eGFP-PCNABC2T, mCherry-Vimentin, mCherry-VimentinBC2T were washed and harvested in phosphate buffered saline (PBS), snap-frozen in liquid nitrogen and stored at −20° C. Cell pellets were homogenized in 200 μl lysis buffer (10 mM Tris/Cl pH 7.5, 150 mM NaCl, 0.5% NP40, 1 μg DNaseI, 2 mM MgCl₂, 2 mM PMSF, 1× protease inhibitor mix M (Serva) by repeated pipetting for 40 min on ice. After a centrifugation step (10 min at 18.000×g) the protein concentration of each lysate was determined using a Pierce BCA Protein Assay Kit (Thermo Fisher Scientific) according to manufacturer's protocol and the protein solutions were adjusted with dilution buffer (10 mM Tris/Cl pH 7.5, 150 mM NaCl, 2 mM PMSF) to a concentration of 1 mg/ml. 2% of the supernatant were added to SDS-containing sample buffer (referred to as input). […] After a centrifugation step (2 min, 2500×g) the precleared supernatant was transferred to a new cup. 2% were added to SDS-containing sample buffer (referred to as non-bound). […] Samples were analyzed by SDS-PAGE followed by immunoblotting. Immunoblots were probed with indicated antibodies.

[6] = molecular target: T8, mCherry-Vimentin (untagged) (UniProt P08670 1-466); experiment: immunoprecipitation from HEK293T lysate with the BC2 nanotrap, immunoblot with anti-vimentin
T8 construct: Control without the BC2 tag; not shown: mCherry fluorescent protein
T8 sequence (P08670 whole entry): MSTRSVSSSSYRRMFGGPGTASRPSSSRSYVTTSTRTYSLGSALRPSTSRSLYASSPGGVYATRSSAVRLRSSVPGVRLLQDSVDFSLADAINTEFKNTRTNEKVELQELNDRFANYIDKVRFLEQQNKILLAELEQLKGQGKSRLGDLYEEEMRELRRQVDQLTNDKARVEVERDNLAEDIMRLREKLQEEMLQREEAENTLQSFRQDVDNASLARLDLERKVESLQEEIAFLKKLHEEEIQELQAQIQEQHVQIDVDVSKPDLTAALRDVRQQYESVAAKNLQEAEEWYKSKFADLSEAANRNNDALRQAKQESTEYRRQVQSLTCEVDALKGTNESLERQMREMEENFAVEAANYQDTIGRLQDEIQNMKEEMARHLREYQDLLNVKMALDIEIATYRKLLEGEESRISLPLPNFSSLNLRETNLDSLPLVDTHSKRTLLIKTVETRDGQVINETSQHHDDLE
Description: as §3

[7] = molecular target: T9, BC2T A6R peptide (BC2TA6X library) (human); experiment: BC2TA6X library pulldown with immobilized Nb, LC-MS of the supernatant
T9 construct: also called arginine at position 6
T9 peptide: Ac-PDRKARVSHWQQ-NH2
Description: as §1

[8] = molecular target: T10, BC2T A6K peptide (BC2TA6X library) (human); experiment: as above
T10 construct: also called lysine at position 6
T10 peptide: Ac-PDRKAKVSHWQQ-NH2
Description: as §1

BC2T K4E = molecular target: T11, BC2T K4E (human); experiment: library pulldown, LC-MS of supernatant; ratio vs GFP-Nb control (0=captured, 1=not captured)
T11 construct: position 4 library, row E
T11 peptide: Ac-PDREAAVSHWQQ-NH2
Procedure, shortened: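 Unbound peptide left in supernatant after 1 h pulldown in PBS/0.01% CHAPS measured by reversed-phase LC-MS (8–30% eluent B gradient, 20 min).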

Binder	binding result [1]	binding result [2]	binding result [3]	binding result [4]	binding result (EPDRKAAVSHWQQQS)	binding result (MEPDRKAAVSHWQQ)	binding result [5]	binding result [6]	binding result [7]	binding result [8]	ratio (BC2T K4E)
B1	no binding	no binding	no binding	no binding	binds	binds	binds	no binding	no binding	no binding	
B2											0.5
